Measured values reported in the supplement of paper PMC12667976.
± gives the standard error.

B1: library; numbered along this chain (parent)
chain: MATDAALRRLLRLHRTEIAVAVDSAFPLLHALADHDVVPEDKFQETLHLKEKEGCPQAFHALLSWLLTQDSTAILDFWRVLFKDYNLERYGRLQPILDSFPKDVDLSQPRKGRKPPAVPKALVPPPRLPTKRKASEEARAAAPAALTPRGTASPGSQLKAKPPKKPESSAEQQRLPLGNGIQTMSASVQRAVAMSSGDVPGARGAVEGILIQQVFESGGSKKCIQVGGEFYTPSKFEDSGSGKNKARSSSGPKPLVRAKGAQGAAPGGGEARLGQQGSVPAPLALPSDPQLHQKNEDECAVCRDGGELICCDGCPRAFHLACLSPPLREIPSGTWRCSSCLQATVQEVQPRAEEPRPQEPPVETPLPPGLRSAGEEVRGPPGEPLAGMDTTLVYKHLPAPPSAAPLPGLDSSALHPLLCVGPEGQQNLAPGARCGVCGDGTDVLRCTHCAAAFHWRCHFPAGTSRPGTGLRCRSCSGDVTPAPVEGVLAPSPARLAPGPAKDDTASHEPALHRDDLESLLSEHTFDGILQWAIQSMARPAAPFPS

Variants of: B1
Assay: AIRE transcriptional activation functional score (insulin promoter-GFP; nonsense median 0, synonymous median 1) (normalised score); higher = higher AIRE activity (more reporter activation)
Conditions: with insulin promoter-GFP reporter in HEK293
Procedure: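 Deep mutational scan of full-length human AIRE (codon-optimized cDNA, DT-POPCode NNN libraries over three regions) integrated at a Bxb1 landing pad in HEK293 cells carrying an insulin core promoter-GFP reporter at a Flp-In site. Cells were sorted for the top 10% GFP about 14 days after transfection. Variant frequency log-ratios (select vs non-select, TileSeq) were rescaled so that the nonsense median is 0 and the synonymous median is 1, then averaged over biological replicates.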

AIRE transcriptional activation functional score: each site, then its substitutions
L49: D -0.689 ± 0.07, F 0.262 ± 0.49, Q -0.302 ± 0.092, Y 0.268 ± 0.6, C -0.191 ± 0.94, W -0.0359 ± 0.22, M 0.566 ± 0.42, S -0.858 ± 0.78, R 1.04 ± 0.72, T -0.364 ± 0.53, A 0.327 ± 0.31, N -0.822 ± 0.12, V 0.492 ± 0.31, H -0.538 ± 0.091, G -0.0766 ± 0.54, I -0.275 ± 1.4, P -0.173 ± 0.43
K52: H -0.455 ± 0.25, T 1.21 ± 0.53, Y 0.198 ± 0.39, S 0.883 ± 0.3, A 1.01 ± 0.14, D 0.601 ± 0.17, N -0.178 ± 0.3, G 0.435 ± 0.41, R 0.664 ± 0.35, P -0.13 ± 0.73, M 2.46 ± 0.48, E 0.994 ± 0.58, W -0.861 ± 0.18, Q -0.353 ± 0.24, L 1.11 ± 0.4, I 0.794 ± 0.38, F 0.16 ± 0.23, V 1.38 ± 0.28, C -0.346 ± 0.18
P56: T 0.544 ± 0.39, V 0.829 ± 0.67, Y -0.155 ± 0.82, G 0.501 ± 0.21, R 0.352 ± 0.45, D -0.102 ± 0.4, I 0.82 ± 0.12, E -1.9 ± 0.27, H 0.985 ± 0.52, A 0.549 ± 0.53, K 1.48 ± 0.16, W 0.16 ± 0.16, F 0.968 ± 0.21, C -0.173 ± 0.26, L -0.0629 ± 0.36, S 0.484 ± 0.56, Q 0.746 ± 0.56, N 0.0217 ± 0.061, M -0.903 ± 0.46
C55: T 1.49 ± 0.65, A -0.603 ± 0.34, W -0.244 ± 0.25, Y 0.622 ± 0.23, I 1.19 ± 0.74, Q -0.411 ± 0.27, F 0.897 ± 0.1, H 0.145 ± 0.14, L -0.0993 ± 1.2, N -0.172 ± 0.48, P 0.602 ± 0.51, G -0.175 ± 0.35, D 0.495 ± 0.29, S -0.196 ± 0.59, V 0.628 ± 0.59, R 0.308 ± 0.33
H48: Y 1.23 ± 0.53, T 0.372 ± 0.13, S -0.318 ± 0.087, C 0.651 ± 0.54, N 0.738 ± 0.44, R 1.64 ± 0.88, V 1.53 ± 0.17, G 0.181 ± 0.13, P -0.897 ± 0.77, Q 1.5 ± 0.14, L 0.44 ± 0.59
D41: Y 1.79 ± 0.26, W 0.551 ± 0.1, A 1.59 ± 0.35, S 0.72 ± 0.4, I -1.3 ± 0.24, K -1.32 ± 0.19, N 1.79 ± 0.15, L 0.547 ± 0.53, H -1.75 ± 0.19, C 1.39 ± 0.13, G 0.147 ± 0.57, E 1.17 ± 0.67, V 0.0716 ± 0.31, R 0.0782 ± 0.29, T 0.827 ± 0.14, F 0.468 ± 0.092, P 0.148 ± 0.081
F43: W 0.0722 ± 0.093, S 0.0986 ± 0.53, P 0.556 ± 0.46, A -0.325 ± 0.25, V 0.36 ± 0.83, R 0.134 ± 0.58, M 0.757 ± 0.1, Q -0.593 ± 0.23, C 0.163 ± 0.23, E -1.08 ± 0.65, I -0.197 ± 0.56, Y 0.108 ± 0.11, L 0.0431 ± 0.38, H -1.42 ± 0.58, D -0.408 ± 0.097, G 0.413 ± 0.39, T -0.219 ± 0.5
K50: V 0.73 ± 0.45, F -0.139 ± 0.12, W 0.149 ± 0.11, A -0.833 ± 0.5, R 0.745 ± 0.42, C 0.454 ± 0.28, Y -0.654 ± 0.44, T 0.51 ± 0.5, D 1.78 ± 0.2, G 1.42 ± 0.11, L 0.404 ± 0.62, P -0.341 ± 0.68, E 0.64 ± 0.64, H 0.46 ± 0.27, I 0.717 ± 0.35, N 1.59 ± 0.23, M 0.465 ± 0.05, S 2.07 ± 0.82
Q57: E 0.685 ± 0.54, Y 0.535 ± 0.2, I 0.761 ± 0.91, F 0.269 ± 0.08, R 0.643 ± 0.75, H -0.168 ± 0.11, W -0.29 ± 0.23, P -0.527 ± 0.52, T 0.369 ± 0.64, C -0.141 ± 0.37, L 1.41 ± 0.39, A 1.25 ± 0.88, G -0.774 ± 0.8, K 1.12 ± 0.16, V 0.739 ± 0.5, N -0.0973 ± 0.88, M -0.643 ± 0.11, S 0.217 ± 0.41
L47: G 0.313 ± 0.19, R -0.624 ± 0.19, I -0.62 ± 0.23, S 0.462 ± 0.4, W -0.717 ± 0.15, C -0.421 ± 0.3, K -1.23 ± 0.61, V 0.302 ± 0.51, T -0.713 ± 0.1, F 0.568 ± 0.16, A 0.636 ± 0.44
G54: Y 0.671 ± 0.86, H 0.133 ± 0.29, N -1.62 ± 0.24, Q -0.474 ± 0.064, I 0.416 ± 0.43, E 0.772 ± 0.34, P -0.123 ± 0.31, M 0.663 ± 0.19, F -0.19 ± 0.42, D 0.773 ± 0.27, W 0.0658 ± 0.092, T -1.14 ± 0.59, A -0.977 ± 0.69, R -0.991 ± 0.58, L -0.0223 ± 0.78, S -0.808 ± 0.76, C 0.165 ± 0.19, V 0.385 ± 0.17
K42: R -0.281 ± 0.49, D -1.69 ± 0.68, M 0.538 ± 0.17, G -0.403 ± 0.21, P -0.0735 ± 0.34, N 0.98 ± 0.81, W -0.0922 ± 0.25, T -0.0654 ± 0.27, C -0.000636 ± 0.22, L 0.0963 ± 0.73, Q 0.53 ± 0.32, V 0.822 ± 0.85, H 0.0173 ± 0.08, F 0.0107 ± 0.18, Y -0.464 ± 0.26, S 0.172 ± 0.31, A -0.323 ± 0.43, E -0.598 ± 0.44, I 0.472 ± 0.67
E45: A -0.429 ± 0.75, T -0.232 ± 0.066, I -1.78 ± 0.28, S -0.772 ± 0.39, K 0.348 ± 1.1, M -1.43 ± 0.084, W 1.17 ± 0.13, C -2.39 ± 0.2, G 0.0251 ± 0.41, L 0.233 ± 0.38, V 0.134 ± 0.25, Q 1.17 ± 0.82, R -0.0981 ± 0.15, F 0.576 ± 0.049, Y -0.129 ± 0.15, D 0.278 ± 0.12, H -0.452 ± 0.067
F59: L 0.0546 ± 0.18, H 0.308 ± 0.5, M 0.656 ± 0.15, C -0.268 ± 0.16, D 0.139 ± 0.28, E 0.561 ± 0.19, G 0.194 ± 0.51, I 0.997 ± 0.48, K 0.387 ± 0.09, A 0.101 ± 0.57
Q44: L 0.658 ± 0.61, Y 0.0762 ± 0.39, G 0.0554 ± 0.5, C -0.0407 ± 0.22, K 1.33 ± 0.33, W 0.23 ± 0.49, H -0.545 ± 0.61, S 0.392 ± 0.37, T 0.288 ± 0.37, P -0.185 ± 0.28, N 0.983 ± 0.35, M -0.749 ± 0.2, D 0.948 ± 0.073, R 0.783 ± 0.72, A 0.712 ± 0.51, V 0.735 ± 0.82, F 1.98 ± 0.19, I 0.916 ± 0.89, E -0.441 ± 0.47
E53: A 1.12 ± 0.17, H 0.435 ± 0.54, C 1.45 ± 0.33, I 1.49 ± 0.51, F 0.611 ± 0.43, P -0.371 ± 0.49, T 1.37 ± 0.61, D 0.593 ± 0.21, L 1.14 ± 0.54, R -0.133 ± 0.6, W 1.2 ± 0.36, S 0.701 ± 0.54, N 0.151 ± 0.6, V 1.36 ± 0.5, Y -0.0622 ± 1.2, K 1.55 ± 0.32, M 0.544 ± 0.27, Q 0.948 ± 0.95, G -0.0905 ± 0.58
E40: F -0.259 ± 0.34, S 0.167 ± 0.41, P 0.61 ± 0.58, V 0.0752 ± 0.28, N -0.324 ± 0.28, I 0.121 ± 0.83, H -0.15 ± 0.22, Y -0.301 ± 0.13, L 0.272 ± 0.29, G -0.121 ± 0.23, K -0.28 ± 0.19, W -0.133 ± 0.065, Q 0.577 ± 0.37, T -0.598 ± 1.6, R -0.956 ± 0.6
E51: A 0.128 ± 0.27, N -2.61 ± 0.17, Q 0.593 ± 0.1, K 0.391 ± 0.53, T -0.0714 ± 0.14, I -1.54 ± 0.37, C -0.0446 ± 0.41, Y -0.775 ± 0.19, D 0.852 ± 0.23, R 0.215 ± 0.32, W -0.495 ± 0.11, F -0.754 ± 0.3, M -1.54 ± 0.85, S -0.885 ± 0.57, P -0.179 ± 0.61, L 0.248 ± 0.5, H 0.0447 ± 0.07, V 0.0642 ± 0.14, G 0.279 ± 0.29
A58: K -1.14 ± 0.57, Q -0.509 ± 0.4, R 0.31 ± 0.42, I -0.388 ± 0.57, L 0.0439 ± 0.2, E -0.0545 ± 0.48, V 0.221 ± 0.19, Y -0.204 ± 0.2, W 0.0998 ± 0.12, P -0.271 ± 0.71, T 0.166 ± 0.52, N -1.13 ± 0.62, G -0.107 ± 0.23, D 0.158 ± 0.1, S -0.0331 ± 0.37, F 0.0934 ± 0.1, H -0.263 ± 0.4, C -0.141 ± 0.25, M -0.0857 ± 0.12
T46: H 0.478 ± 0.15, R 0.389 ± 0.22, F -1.2 ± 0.75, I 0.403 ± 0.67, S 0.455 ± 0.51, N -0.328 ± 0.33, G -0.878 ± 0.15, V -0.0333 ± 0.38, L -0.561 ± 0.72, M 2.55 ± 0.11, D -0.445 ± 0.23, K -3.42 ± 0.23, C 0.841 ± 0.26, A 0.0907 ± 0.95, E 1.4 ± 0.057, Y 0.503 ± 0.35
